Assay: yeast display, Sf9 membrane polyspecificity reagent, FACS + sequencing; frameworks hold sequencing errors
Summary of the method: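 Using colony PCR, genes from sorted yeast display clones were amplified, then sequenced on MiSeq at 2 × 250 and filtered by CDR length. The clones had been stained with 10% biotinylated, detergent-solubilized Sf9 membrane reagent for 1 hour at 4 °C and sorted by FACS into low and high (top ~1%) gates on anti-HA and streptavidin fluorescence. Polyreactivity labels come from the gate of origin.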

Row | Sequence | polyreactivity (PSR sort gate)
1 | QVQLVESGGGLVQAGVSLRLSCAASGSIFRWNAMGWYRQAPGKERELVAAITGSGGSTYYADSVKGRFTISRDNAKNTVYLQMNSLKPEDTAVYYCAAKSPRILLDYWGQGTQVTVSS | low polyreactivity
2 | QVQLVESGGGLVQAGGSLRLSCAASGRTFYVNTMGWYRQAPGKEREFVAAITWRDGSTYYADSVKGRFTISRDNAKNTVYLQMNSLKPEDTAVYYCAARNSHDGYYDEYYYWGQGTQVTVSS | low polyreactivity
3 | QVQLVESGGGLVQEGGSLRLSCAASGFTFPDYAMGWNRQAPGKERDLVAAITSSGGSTYYADSVKGRFTISRDNAKNTVYLQMNSLKPEDTAVYYCNGYISDDRYWSPAIEEDYWGQGTQVTVSS | high polyreactivity
4 | QVQLVESGGGLVQAGGSLRLSCAASGIIFGGYAMGWYRQAPGKERELVADISGISSNTYYADSVKGRFTISRDNAKNTVYLQMNSLKPEDTAVYYCAADLTAWWAPVIFYYWGQGTQVTVSS | high polyreactivity
5 | QVQLVESGGGLVQAGGSLRLSCAASGFTFVAYAMGWYRQAPGKERELVAAISKSGGNTYYADSVKGRFTISRDNAKNTVYLQMNSLKPEDTAVYYCAAPRRYAWGQVNYWGQGTQVTVSS | high polyreactivity
6 | QVQLVESGRGLVQAGGSLRLSCAASGFTCRWYAIGLYRQAPGKERELVAAISRDGSTNYADSVKGRFTISRDNAKNTVYLQMNSLKPEDTSVYYCAKRYYRYPYSQGDYWGQGTQVTVSS | high polyreactivity
7 | QVQLVESGGGLVQAGGSLRLSCAASGSIFDGYAMGWYRQAPGKERELVAAISQRGGSTYYADSVKGRFTISRDNAKNTVYLQMNSLKPEDTAVYYCAADSSYGTREYWGQGTQVTVSS | low polyreactivity
8 | QVQLVESGGGVVQAGGSLRLSGAASGSTLLRNAMGWYRQAPGKAWELVAVITYSGGSTYYADSVKGRFTISRDQAKNTVYLQMNSLIPEDTAVYYCAADKWYYVRYATDAYSKFDYWGQGTQVTVSS | low polyreactivity
9 | QVQLVESGGGLVQAGGSLRLSCAASGRTFQFYVMGWYRQAPGKERELVASIRSGGSTNYADSVKGRFTISRDNAKNTVYLQMNSLKPEDTAVYYCAARVASPYYRYDYWGQGTQVTVSS | low polyreactivity
10 | QVQLVESGGGLVQAGGSLSLSCAASGSILGYYAMGWYRQAPGKERELVAAISGRGGSTYYADSVKGRFTISRDNAKNPVYLQMNSLKPEDTAVYYCAKRSVWRGWGQGTQVTVSS | high polyreactivity
11 | QVQLVESGGGLVQAGGSLRLSCAASGRTFQINGMGWYRQAPGKERELVAAITRSGGITYYADSVKGRFTISRDNAKNTVYLQMNSLKPEDTAVYYCNADSYAYYSWYDYWGQGTQVTVSS | low polyreactivity
12 | QVQLVESGGGLVQAGGSLRLSCAASGSIFRVYAMGWYRQAPGKERELVAGISSRGGTSTYYADSVKGRFTISRDNAKNSVYLQMNSLNPEETAVYYCAVQVRYPGYDYWGQGTQVTVSS | low polyreactivity
13 | QVQLVESGGCLVQAGGRLRLSCAPSGFTFRKYAMGWYRQAPGKERQLVAAITANGGRTYNADSVKGRFTISRDNAKYTDYLKMNSLKPEDTSVYYCYARPSRGFRPRSAYGYWGQGTQVTVSS | high polyreactivity
14 | QVQLVESGGGLVQAGGSLRLSCAASGLIFTPYPMGWYRQAPGKERELVAAISVSGGRTYYADSVKGRITISRDNEKNTVYLQMNSLKPEDTAVYYCAASDRYGGRDYWGQGTQVTVSS | high polyreactivity
15 | QVQLVESGGGLVQAGGSLRLSCAASGSIFAYAMGWYRQAPGKERELVAGISSSGGRTYYADSVKGRFTISRDNAKNTVYLQMISLKPEDTAVYYCAARYPNVYQSETYFYWGQGTQVNVSS | high polyreactivity
16 | QVQLVESGGGLVHAGGSLRLSCAASGLTFVDNAMGWYRQAPGKERELVAAITKRGGRTYYADSVKGRFTISRDNAKNTVYSQMNSLKPEDTAVYYCAREAGNDSSRRLDYWGQGTQVTVSS | low polyreactivity

Row | Sequence | polyreactivity (PSR sort gate)
17 | QVQLVESGGGLVQAGGSLRLSCAPSGRIFGTYAMGWYRQAPGKERELVASIRSRGGRTYYADSVKGRFTISRDNAKNTVYLQMNSLKPEDTAVYYCAADVGVYYYSFYYWGQGTQVTVSS | high polyreactivity
18 | QVHLVESGGGLVQAGGSLRLSCAASGFTFVQYAMGWYRQAPGKERELVATISKSGGITYYADSVKGRFTISRDNAKNTVYLQMNSLKPEDTSVYYCAAAWYYSSRGFHATWGHDYWGQGTQVTVSS | low polyreactivity
19 | QVQLVESGGGLVQAGGSLRLICAASGSTFAYNYMGWYRQAPGKERELVPDIRSGGNTNYADSVKGRFTISRDNAKNTVYLQMNSLKPEDTAVYYCATDGYRIDVYHPDYRYDYWGQGTQVTVSS | low polyreactivity
20 | QVQLVESGGGLVQAGGSLRLSCAASGNIIDANAIGWYRPAPGKERQLVAAITSSGGSTYYADSVKGRFTISRDNAKNTVYLQMNSLKPEDTAVYYCAKSHAIYYWWDESWGQGTQVTVSS | low polyreactivity
21 | QVQLVESGGGLVQAGGSLRLSCAASGSTFSYYAMGWYRQAPGKERELVAAISRSGGSTYYADSVKGRFTISRDNAKNTVYFQMNSMKPEDTAVYYCADRGQYRYSFGDYSWGQGTQVTVSS | high polyreactivity
22 | QVQLVESGGGLVQAGGSLRLSCAASGRTFLYYAMGWYRQAPGKERELVAAIDWSDDSTYYADSVKGRFTISRDNAKNTVYLQMNSLKPEDTAVYYCATDGLYLSWQYSWEELYYWGQGTQVTVSS | high polyreactivity
23 | QVQLVESGGGLVQAGGSLRISCAASGSIFDYYAMGWYIQAPGKERELVAAISWSGGSTYYADSVKGRFTISRDNAKNTVYLQMNSLKPVDTAVYYCAAEYYGGEFDYWGQGTQVTVSS | low polyreactivity
24 | QVQLVESGGGLVQAGGTLRLSCADSGSTFAGNGMGWYRQAPGKERQLVAGIDVTGGSTYYADSVKGRFTISRDNAKNTVYLQMNSLKPEDTAVYYCAARVVRYGYKYYYWGQGTQVTVSS | low polyreactivity
25 | QVQLVESGGGLVQAGGSLRLSCAASGSTFSKKAMGWYRQAPGKERELVAAITGRGGNTYYADSVKGRFTLSRDNAKNTVYLQMNSLKPEDTAVYYCAASWATYWFYRKAYNYWGQGTQVTVSS | high polyreactivity
26 | QVQLVESGGVLVQAGGSLRLSCAASGSIFANNAMGWYRQAPGKERELVATIRSGGTTNYADSVKGRFTISRDNAKNTVYLQMNSLKPEDTAVYYCAVDYVVYADGPLDYWGQGTQVTVSS | low polyreactivity
27 | QVQLVESGGGLVQAGGSLRLSCAASGRTFRPYAMGWYRQAPGKEREFVARITWSGGTTYYADSVKGRFTISRDNAKNTVYLQMNSLKPEDTAVYYCAARVSRQTPLISYNYWGQGTQVTVSS | low polyreactivity
28 | QVQLVDSGGGLVQAGGSLRLSCAASGYTFVGYAMGWSRQAPGKERELVAVISGSGGSTRYADSVKGRFTISRDNAKNTVYLQMNSLKPEDTAVYYCAARQPRTQAVYEGYYWGQGTQVTVSS | high polyreactivity
29 | QVQLVESGGGLVQAGGSIRLSCAASGGTFSYYAMGWYRQAPGKESELVAAISGNGDTTYYADSVKGRFTISRDNAKNTDYVQMNSLKPEDTAVYYCATAFSYGGGAYDYWGQGTLVTVSS | low polyreactivity
30 | QVQLVESGGGLVQAGGSLRLSCAASGSIFYTNVMGWYRQAPGKERELVAAISSRGGSTYYADSVKGRFTISRDNAKNTVYLQMNSLKPEDTAVYYCAARFLHYYPTRGYTYDYWGQGTQVTVSS | high polyreactivity
31 | QVQLVESGGGLVQAGGSLRLSCAASGRTFGGYAMGWYRQAPGKERELVAAITSDTGTNYADSVKGRFTISRDNAKNTVYLQMNSLKPEDTAVYYCAADRFYEYDYWGQGTQVTVSS | low polyreactivity
